Results reported in PMC13397619.

B1: NLV3 TCR beta chain (CDR3β only) (parent)
chain: ASSPTGGSPSPLH
partner: NLCPMVATV

Variants of: B1
Experiment: T-Switch: Jurkat TCRβ−/− cells expressing a CDR3 saturation-mutagenesis library, stained with two peptide-HLA-A*02:01 tetramers (original and novel peptide) plus anti-CD3, FACS-sorted into four gates, gDNA sequenced
Conditions: with HLA-A*02:01 with peptide … (NLV 2-1, the novel peptide), tetramers 1 µg/mL, 30 min on ice, SP, DP and SW gates expanded about 10 days between rounds ('two to three rounds of selection' in the Methods), gate SW: higher = more of the variant in the gate that binds the novel peptide and not the original one = switched binding. Fold enrichment of the CDR3 variant in one FACS gate of a two-tetramer stain, unresolved parent, parent is a CDR3 fragment, scale: fold enrichment, numbering: sequential-on-construct, sequence starts at 1
[…] (CDR3 as printed); P9G derived by comparing it with the table's wild-type CDR3 ASSPTGGSPSPLH gave an enrichment of 0.
Work on […] (CDR3 as printed); T5Q derived by comparing it with the table's wild-type CDR3 ASSPTGGSPSPLH yielded an enrichment of 0.
For […] (CDR3 as printed); A1V derived by comparing it with the table's wild-type CDR3 ASSPTGGSPSPLH, the enrichment was 0.
[…] (CDR3 as printed); S8I derived by comparing it with the table's wild-type CDR3 ASSPTGGSPSPLH showed an enrichment of 0.
[…] (CDR3 as printed); G7K derived by comparing it with the table's wild-type CDR3 ASSPTGGSPSPLH gave an enrichment of 0.
Variant […] (CDR3 as printed); L12Q derived by comparing it with the table's wild-type CDR3 ASSPTGGSPSPLH has an enrichment of 0.
[…] (CDR3 as printed); P11E derived by comparing it with the table's wild-type CDR3 ASSPTGGSPSPLH was tested, and the enrichment was 0.
[…] (CDR3 as printed); H13I derived by comparing it with the table's wild-type CDR3 ASSPTGGSPSPLH was tested, and the enrichment was 0.
For […] (CDR3 as printed); P11S derived by comparing it with the table's wild-type CDR3 ASSPTGGSPSPLH, the enrichment was 0.
Work on […] (CDR3 as printed); G7R derived by comparing it with the table's wild-type CDR3 ASSPTGGSPSPLH yielded an enrichment of 0.
[…] (CDR3 as printed); P4C derived by comparing it with the table's wild-type CDR3 ASSPTGGSPSPLH gave an enrichment of 0.
[…] (CDR3 as printed); S10H derived by comparing it with the table's wild-type CDR3 ASSPTGGSPSPLH showed an enrichment of 0.
[…] (CDR3 as printed); S8R derived by comparing it with the table's wild-type CDR3 ASSPTGGSPSPLH gave an enrichment of 0.
For […] (CDR3 as printed); G6W derived by comparing it with the table's wild-type CDR3 ASSPTGGSPSPLH, the enrichment was 0.
In the case of […] (CDR3 as printed); G6L derived by comparing it with the table's wild-type CDR3 ASSPTGGSPSPLH, the enrichment is reported as 0.
For […] (CDR3 as printed); S8V derived by comparing it with the table's wild-type CDR3 ASSPTGGSPSPLH, the enrichment was 0.
[…] (CDR3 as printed); L12V derived by comparing it with the table's wild-type CDR3 ASSPTGGSPSPLH showed an enrichment of 0.
Variant […] (CDR3 as printed); L12I derived by comparing it with the table's wild-type CDR3 ASSPTGGSPSPLH has an enrichment of 0.
[…] (CDR3 as printed); T5K derived by comparing it with the table's wild-type CDR3 ASSPTGGSPSPLH was tested, and the enrichment was 0.
Work on […] (CDR3 as printed); S8F derived by comparing it with the table's wild-type CDR3 ASSPTGGSPSPLH yielded an enrichment of 0.
Work on […] (CDR3 as printed); S3I derived by comparing it with the table's wild-type CDR3 ASSPTGGSPSPLH yielded an enrichment of 0.
With […] (CDR3 as printed); L12N derived by comparing it with the table's wild-type CDR3 ASSPTGGSPSPLH the enrichment was 0.
[…] (CDR3 as printed); H13W derived by comparing it with the table's wild-type CDR3 ASSPTGGSPSPLH was tested, and the enrichment was 0.
Variant […] (CDR3 as printed); P9N derived by comparing it with the table's wild-type CDR3 ASSPTGGSPSPLH has an enrichment of 0.
For […] (CDR3 as printed); S10V derived by comparing it with the table's wild-type CDR3 ASSPTGGSPSPLH, the enrichment was 0.
[…] (CDR3 as printed); T5R derived by comparing it with the table's wild-type CDR3 ASSPTGGSPSPLH showed an enrichment of 0.
With […] (CDR3 as printed); H13M derived by comparing it with the table's wild-type CDR3 ASSPTGGSPSPLH the enrichment was 0.
[…] (CDR3 as printed); H13N derived by comparing it with the table's wild-type CDR3 ASSPTGGSPSPLH gave an enrichment of 0.
With […] (CDR3 as printed); P4G derived by comparing it with the table's wild-type CDR3 ASSPTGGSPSPLH the enrichment was 0.
In the case of […] (CDR3 as printed); S8H derived by comparing it with the table's wild-type CDR3 ASSPTGGSPSPLH, the enrichment is reported as 0.
With […] (CDR3 as printed); G7I derived by comparing it with the table's wild-type CDR3 ASSPTGGSPSPLH the enrichment was 0.
For […] (CDR3 as printed); G6H derived by comparing it with the table's wild-type CDR3 ASSPTGGSPSPLH, the enrichment was 0.
[…] (CDR3 as printed); G6C derived by comparing it with the table's wild-type CDR3 ASSPTGGSPSPLH was tested, and the enrichment was 0.
In the case of […] (CDR3 as printed); S10L derived by comparing it with the table's wild-type CDR3 ASSPTGGSPSPLH, the enrichment is reported as 0.
With […] (CDR3 as printed); S10I derived by comparing it with the table's wild-type CDR3 ASSPTGGSPSPLH the enrichment was 0.
[…] (CDR3 as printed); S2V derived by comparing it with the table's wild-type CDR3 ASSPTGGSPSPLH was tested, and the enrichment was 0.
With […] (CDR3 as printed); S8L derived by comparing it with the table's wild-type CDR3 ASSPTGGSPSPLH the enrichment was 0.
[…] (CDR3 as printed); S3N derived by comparing it with the table's wild-type CDR3 ASSPTGGSPSPLH showed an enrichment of 0.
With […] (CDR3 as printed); S2Q derived by comparing it with the table's wild-type CDR3 ASSPTGGSPSPLH the enrichment was 0.
[…] (CDR3 as printed); A1D derived by comparing it with the table's wild-type CDR3 ASSPTGGSPSPLH gave an enrichment of 0.
Variant […] (CDR3 as printed); S8K derived by comparing it with the table's wild-type CDR3 ASSPTGGSPSPLH has an enrichment of 0.
[…] (CDR3 as printed); S8A derived by comparing it with the table's wild-type CDR3 ASSPTGGSPSPLH gave an enrichment of 0.
[…] (CDR3 as printed); A1E derived by comparing it with the table's wild-type CDR3 ASSPTGGSPSPLH gave an enrichment of 0.
[…] (CDR3 as printed); P9S derived by comparing it with the table's wild-type CDR3 ASSPTGGSPSPLH showed an enrichment of 0.
For […] (CDR3 as printed); A1W derived by comparing it with the table's wild-type CDR3 ASSPTGGSPSPLH, the enrichment was 0.
In the case of […] (CDR3 as printed); T5S derived by comparing it with the table's wild-type CDR3 ASSPTGGSPSPLH, the enrichment is reported as 0.
[…] (CDR3 as printed); P11D derived by comparing it with the table's wild-type CDR3 ASSPTGGSPSPLH gave an enrichment of 0.
Work on […] (CDR3 as printed); S8W derived by comparing it with the table's wild-type CDR3 ASSPTGGSPSPLH yielded an enrichment of 0.
Work on […] (CDR3 as printed); A1I derived by comparing it with the table's wild-type CDR3 ASSPTGGSPSPLH yielded an enrichment of 0.
[…] (CDR3 as printed); P4I derived by comparing it with the table's wild-type CDR3 ASSPTGGSPSPLH gave an enrichment of 0.
[…] (CDR3 as printed); P4S derived by comparing it with the table's wild-type CDR3 ASSPTGGSPSPLH was tested, and the enrichment was 0.
[…] (CDR3 as printed); T5H derived by comparing it with the table's wild-type CDR3 ASSPTGGSPSPLH showed an enrichment of 0.
[…] (CDR3 as printed); S8E derived by comparing it with the table's wild-type CDR3 ASSPTGGSPSPLH gave an enrichment of 0.
[…] (CDR3 as printed); P9W derived by comparing it with the table's wild-type CDR3 ASSPTGGSPSPLH showed an enrichment of 0.
[…] (CDR3 as printed); L12G derived by comparing it with the table's wild-type CDR3 ASSPTGGSPSPLH showed an enrichment of 0.
With […] (CDR3 as printed); H13T derived by comparing it with the table's wild-type CDR3 ASSPTGGSPSPLH the enrichment was 0.
[…] (CDR3 as printed); P11Y derived by comparing it with the table's wild-type CDR3 ASSPTGGSPSPLH was tested, and the enrichment was 0.
With […] (CDR3 as printed); L12Y derived by comparing it with the table's wild-type CDR3 ASSPTGGSPSPLH the enrichment was 0.
For […] (CDR3 as printed); P4F derived by comparing it with the table's wild-type CDR3 ASSPTGGSPSPLH, the enrichment was 0.
Variant […] (CDR3 as printed); S8T derived by comparing it with the table's wild-type CDR3 ASSPTGGSPSPLH has an enrichment of 0.
[…] (CDR3 as printed); G6F derived by comparing it with the table's wild-type CDR3 ASSPTGGSPSPLH gave an enrichment of 0.
[…] (CDR3 as printed); G7T derived by comparing it with the table's wild-type CDR3 ASSPTGGSPSPLH gave an enrichment of 0.
Variant […] (CDR3 as printed); S3D derived by comparing it with the table's wild-type CDR3 ASSPTGGSPSPLH has an enrichment of 0.
In the case of […] (CDR3 as printed); G6N derived by comparing it with the table's wild-type CDR3 ASSPTGGSPSPLH, the enrichment is reported as 0.
Variant […] (CDR3 as printed); T5M derived by comparing it with the table's wild-type CDR3 ASSPTGGSPSPLH has an enrichment of 0.
Variant […] (CDR3 as printed); G7E derived by comparing it with the table's wild-type CDR3 ASSPTGGSPSPLH has an enrichment of 0.
With […] (CDR3 as printed); H13F derived by comparing it with the table's wild-type CDR3 ASSPTGGSPSPLH the enrichment was 0.
[…] (CDR3 as printed); S8G derived by comparing it with the table's wild-type CDR3 ASSPTGGSPSPLH showed an enrichment of 0.
[…] (CDR3 as printed); S3K derived by comparing it with the table's wild-type CDR3 ASSPTGGSPSPLH was tested, and the enrichment was 0.
[…] (CDR3 as printed); S3P derived by comparing it with the table's wild-type CDR3 ASSPTGGSPSPLH showed an enrichment of 0.
[…] (CDR3 as printed); G6Y derived by comparing it with the table's wild-type CDR3 ASSPTGGSPSPLH gave an enrichment of 0.
With […] (CDR3 as printed); A1C derived by comparing it with the table's wild-type CDR3 ASSPTGGSPSPLH the enrichment was 0.
With […] (CDR3 as printed); P11Q derived by comparing it with the table's wild-type CDR3 ASSPTGGSPSPLH the enrichment was 0.
[…] (CDR3 as printed); S8M derived by comparing it with the table's wild-type CDR3 ASSPTGGSPSPLH gave an enrichment of 0.
Variant […] (CDR3 as printed); A1R derived by comparing it with the table's wild-type CDR3 ASSPTGGSPSPLH has an enrichment of 0.
For […] (CDR3 as printed); P4D derived by comparing it with the table's wild-type CDR3 ASSPTGGSPSPLH, the enrichment was 0.
[…] (CDR3 as printed); P9E derived by comparing it with the table's wild-type CDR3 ASSPTGGSPSPLH was tested, and the enrichment was 0.
Variant […] (CDR3 as printed); G6Q derived by comparing it with the table's wild-type CDR3 ASSPTGGSPSPLH has an enrichment of 0.
[…] (CDR3 as printed); S3Y derived by comparing it with the table's wild-type CDR3 ASSPTGGSPSPLH showed an enrichment of 0.
[…] (CDR3 as printed); S2E derived by comparing it with the table's wild-type CDR3 ASSPTGGSPSPLH was tested, and the enrichment was 0.
In the case of […] (CDR3 as printed); T5E derived by comparing it with the table's wild-type CDR3 ASSPTGGSPSPLH, the enrichment is reported as 0.
Work on […] (CDR3 as printed); G6S derived by comparing it with the table's wild-type CDR3 ASSPTGGSPSPLH yielded an enrichment of 0.
For […] (CDR3 as printed); S10D derived by comparing it with the table's wild-type CDR3 ASSPTGGSPSPLH, the enrichment was 0.
Variant […] (CDR3 as printed); A1N derived by comparing it with the table's wild-type CDR3 ASSPTGGSPSPLH has an enrichment of 0.
Work on […] (CDR3 as printed); S10N derived by comparing it with the table's wild-type CDR3 ASSPTGGSPSPLH yielded an enrichment of 0.
